Reference: publication PMC4686857

Target: β2 subunit of human LFA-1 expressed in BAF/LFA-1 cells (human) (UniProt P05107)
Experiment: co-IP; lysates of BAF/LFA-1 cells transfected with vector or Spa-1, ±CXCL12 for 1 min, immunoprecipitated with anti-β2, immunoblotted with anti-FLNa

Chain of UniProt P05107 (P05107 23-769): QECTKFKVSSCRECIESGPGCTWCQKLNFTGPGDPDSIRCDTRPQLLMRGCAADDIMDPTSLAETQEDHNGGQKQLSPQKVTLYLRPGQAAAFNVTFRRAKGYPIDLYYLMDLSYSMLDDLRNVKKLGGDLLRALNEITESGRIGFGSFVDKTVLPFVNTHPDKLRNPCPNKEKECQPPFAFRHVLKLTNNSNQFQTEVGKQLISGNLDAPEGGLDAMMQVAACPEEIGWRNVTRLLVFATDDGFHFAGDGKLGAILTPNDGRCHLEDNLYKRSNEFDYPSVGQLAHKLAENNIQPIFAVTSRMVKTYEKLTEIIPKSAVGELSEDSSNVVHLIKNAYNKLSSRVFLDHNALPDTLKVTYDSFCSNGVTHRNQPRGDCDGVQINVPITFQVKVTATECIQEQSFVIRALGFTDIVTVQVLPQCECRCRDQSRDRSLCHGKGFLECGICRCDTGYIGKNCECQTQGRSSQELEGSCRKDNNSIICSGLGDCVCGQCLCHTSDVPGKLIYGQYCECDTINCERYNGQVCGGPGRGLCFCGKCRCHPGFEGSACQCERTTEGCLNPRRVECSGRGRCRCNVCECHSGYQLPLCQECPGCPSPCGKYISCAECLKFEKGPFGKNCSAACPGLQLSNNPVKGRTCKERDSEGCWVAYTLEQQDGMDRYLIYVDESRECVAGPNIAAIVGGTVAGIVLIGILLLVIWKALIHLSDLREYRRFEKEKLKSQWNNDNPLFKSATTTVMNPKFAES

FLNa co-precipitated with β2 after CXCL12 stimulation, Spa-1-expressing cells, percent: 64.7%
FLNa co-precipitated with β2 after CXCL12 stimulation, control cells, percent: 25.2%
Substance: endogenous FLNa of BAF/LFA-1 cells, Q8BTM8 1-2647
